In US20240092919A1 (Ablynx, published 2024):
Substitutions are numbered along the chain they refer to. Read-outs that look alike come from different tables or passages of the source.

Columns and labels:
[1] = biological target: T1, Human T cell receptor on human primary T cells (human, UniProt P01848 1-140; P01850 1-176); assay: flow cytometry, human primary T cells
T1 construct: whole, on cells
Protocol: (§2) The ISVD variants were characterized for binding to CHO-K1 huTCR(2XN9)/huCD3 or to human and cynomolgus primary T cells. […] Next, cells were washed 3 times with FACS buffer and incubated with 1 μg/ml ANTI-FLAG® M2 Ab (Sigma, F1804) and washed again. […] Subsequently, cells were resuspended in FACS buffer supplemented with 5 nM TO-PRO®-3 Iodide to distinguish live from dead cells, which are removed during the gating procedure. Cells were analyzed using a FACS Array flow cytometer (BD Biosciences) and Flowing Software. First a P1 population which represented more than 80% of the total cell population was selected based on FSC-SSC distribution. In this gate, 10000 cells were counted during acquisition. From this population the TO-PRO®-3+cells (dead cells) were excluded and the mean fluorescence intensity (MFI) PE value was calculated.
T1 TCR alpha (looked up): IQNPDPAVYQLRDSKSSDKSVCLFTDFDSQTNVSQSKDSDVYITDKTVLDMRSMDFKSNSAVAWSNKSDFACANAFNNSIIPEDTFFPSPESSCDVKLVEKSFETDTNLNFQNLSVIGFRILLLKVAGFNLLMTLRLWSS
T1 TCR beta (looked up): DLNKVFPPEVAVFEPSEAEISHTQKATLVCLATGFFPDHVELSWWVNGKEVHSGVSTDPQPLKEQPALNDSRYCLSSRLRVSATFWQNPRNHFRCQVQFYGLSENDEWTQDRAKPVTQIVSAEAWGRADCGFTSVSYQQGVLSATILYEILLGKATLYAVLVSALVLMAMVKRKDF

[2] = biological target: T2, Cynomolgus TCR(AEA41865/AEA41866)-zipper protein (cynomolgus monkey); assay: table head: SPR ProteOn XPR36; text: BLI, Octet RED384, 25 C, immobilised TCR-zipper
T2 construct: also called cyTCR-zipper protein; cynoTCR zipper
T2 TCR alpha: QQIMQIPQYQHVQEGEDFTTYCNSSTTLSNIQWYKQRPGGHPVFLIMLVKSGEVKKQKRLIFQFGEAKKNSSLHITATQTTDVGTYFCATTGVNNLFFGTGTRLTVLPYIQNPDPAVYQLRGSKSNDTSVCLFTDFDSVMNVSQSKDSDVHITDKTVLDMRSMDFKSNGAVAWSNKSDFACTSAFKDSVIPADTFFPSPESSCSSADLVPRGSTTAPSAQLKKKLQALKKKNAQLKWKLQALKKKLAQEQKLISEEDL
T2 TCR beta: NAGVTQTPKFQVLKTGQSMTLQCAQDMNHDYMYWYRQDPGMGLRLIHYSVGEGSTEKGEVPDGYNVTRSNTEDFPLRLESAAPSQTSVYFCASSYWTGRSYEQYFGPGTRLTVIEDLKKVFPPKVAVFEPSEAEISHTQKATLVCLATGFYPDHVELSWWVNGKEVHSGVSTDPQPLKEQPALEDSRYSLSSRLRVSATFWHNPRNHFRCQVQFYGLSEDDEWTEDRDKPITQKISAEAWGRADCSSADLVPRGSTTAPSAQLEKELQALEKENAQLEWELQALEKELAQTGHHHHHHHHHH
Protocol: (§1) Affinity constants (KD) were calculated applying a 1:1 interaction model using the ForteBio Data Analysis software.

[3] = biological target: T1, Human T cell receptor on human primary …; assay: flow cytometry, human primary T cells
Protocol: as §2

[4] = biological target: T3, Cynomolgus TCR(AEA41865/AEA41866)-zipper protein (cynomolgus monkey); assay: BLI (Octet RED384), KD on cyTCR-zipper against KD on huTCR-zipper
T3 construct: also called cyTCR-zipper; cynoTCR-zipper protein
T3 TCR alpha: T2 TCR alpha
T3 TCR beta: T2 TCR beta
Protocol: as §1

[5] = biological target: T3, Cynomolgus …; assay: SPR (ProteOn XPR36), KD on cyTCR-zipper against KD on huTCR-zipper
Description: HuTCR-zipper or cyTCR-zipper protein was immobilized on a GLC sensor chip (between 100-200 RU) via amine coupling chemistry, using EDC/NHS for activation of the carboxyl groups on the chip surface (running buffer: HBS-EP+, pH7.4). […] Processed sensorgrams were fitted with the Langmuir model (1:1 interaction) using ProteOn Manager 3.1.0 (Version 3.1.0.6) software.

[6] = biological target: T2, Cynomolgus …; assay: SPR, ProteOn XPR36, 37 C, immobilised TCR-zipper
Description: In brief, huTCR-zipper or cyTCR-zipper protein was immobilized on a GLC sensor chip (between 100-200 RU) via amine coupling chemistry, using EDC/NHS for activation of the carboxyl groups on the chip surface (running buffer: HBS-EP+, pH7.4). […] Processed sensorgrams were fitted with the Langmuir model (1:1 interaction) using ProteOn Manager 3.1.0 (Version 3.1.0.6) software.

[7] = biological target: T1, Human T cell receptor on human primary …; assay: flow cytometry competition with Flag3-His6-tagged anti-TCR ISVD ligand, human primary T cells
Protocol: (§3) Subsequently, cells were resuspended in FACS buffer supplemented with 1 μg/ml Propidium Iodide (PI, Sigma, P4170) to distinguish live from dead cells. Cells were analyzed using a FACS Array flow cytometer (BD Biosciences) using Flowing Software. First a P1 population which represented more than 80% of the total cell population was selected based on FSC-SSC distribution. In this gate, 10000 cells were counted during acquisition. From this population the Propidium iodide or TO-PRO©-3 Iodide positive cells (dead cells) were excluded and the median or Mean PE value was calculated.

[8] = biological target: T4, Cynomolgus T cell receptor on the HSC-F cynomolgus T cell line (cynomolgus monkey); assay: flow cytometry competition with Flag3-His6-tagged anti-TCR ISVD ligand, HSC-F cells
T4 construct: whole, on cells; also called HSC-F cells; HSC-F cyno T cell line (NIBIO JCRB1164)
Protocol: as §3

[9] = biological target: T3, Cynomolgus …; assay: SPR (ProteOn XPR36, 37°C), KD on huTCR-zipper against KD on cyTCR-zipper
[10] = biological target: T1, Human T cell receptor on human primary …; assay: flow cytometry on human primary T cells; Flag3-His6-tagged ISVD, anti-FLAG M2 + PE goat anti-mouse; MFI (mean PE)
Protocol: as §2

[11] = biological target: T5, Cynomolgus TCR/cynomolgus CD3 complex on CHO-K1 cells (rhesus monkey (constant domains …)); assay: flow cytometry on CHO-K1 cyTCR/cyCD3 cells; Flag3-His6-tagged ISVD, anti-FLAG M2 + PE goat anti-mouse; MFI (mean PE) [panel CHO-K1 cyTCR/cyCD3]
T5 construct: also called CHO-K1 cyTCR/cyCD3
Protocol: Next, cells were washed 3 times with FACS buffer and incubated with 1 μg/ml ANTI-FLAG® M2 Ab (Sigma, F1804) and washed again. […] Subsequently, cells were resuspended in FACS buffer supplemented with 5 nM TO-PRO®-3 Iodide to distinguish live from dead cells, which are removed during the gating procedure. Cells were analyzed using a FACS Array flow cytometer (BD Biosciences) and Flowing Software. First a P1 population which represented more than 80% of the total cell population was selected based on FSC-SSC distribution. In this gate, 10000 cells were counted during acquisition. From this population the TO-PRO®-3+ cells (dead cells) were excluded and the mean fluorescence intensity (MFI) PE value was calculated.
T5 TCR alpha: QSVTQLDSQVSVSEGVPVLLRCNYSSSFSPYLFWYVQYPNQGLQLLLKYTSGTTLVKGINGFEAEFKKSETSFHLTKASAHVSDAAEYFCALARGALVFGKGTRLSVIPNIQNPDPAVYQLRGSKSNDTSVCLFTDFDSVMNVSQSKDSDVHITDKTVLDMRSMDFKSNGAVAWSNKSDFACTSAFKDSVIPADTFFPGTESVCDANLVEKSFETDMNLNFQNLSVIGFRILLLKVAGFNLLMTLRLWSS
T5 TCR beta: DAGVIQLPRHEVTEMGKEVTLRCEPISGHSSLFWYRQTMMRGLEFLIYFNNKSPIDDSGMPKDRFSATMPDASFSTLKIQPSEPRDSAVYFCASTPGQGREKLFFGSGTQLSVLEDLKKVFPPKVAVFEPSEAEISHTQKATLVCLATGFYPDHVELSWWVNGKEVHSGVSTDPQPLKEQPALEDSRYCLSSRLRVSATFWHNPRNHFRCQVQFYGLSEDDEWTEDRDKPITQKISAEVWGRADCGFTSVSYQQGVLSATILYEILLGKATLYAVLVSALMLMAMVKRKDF
T5 chain 3: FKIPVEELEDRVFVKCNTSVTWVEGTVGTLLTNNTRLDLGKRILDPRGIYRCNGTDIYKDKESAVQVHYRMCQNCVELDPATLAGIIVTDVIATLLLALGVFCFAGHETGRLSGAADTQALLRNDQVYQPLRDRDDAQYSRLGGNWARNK
T5 chain 4: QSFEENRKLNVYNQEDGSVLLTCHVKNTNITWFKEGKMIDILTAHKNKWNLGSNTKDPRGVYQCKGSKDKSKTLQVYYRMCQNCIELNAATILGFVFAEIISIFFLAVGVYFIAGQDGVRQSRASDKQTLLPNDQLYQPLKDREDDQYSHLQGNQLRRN
T5 chain 5: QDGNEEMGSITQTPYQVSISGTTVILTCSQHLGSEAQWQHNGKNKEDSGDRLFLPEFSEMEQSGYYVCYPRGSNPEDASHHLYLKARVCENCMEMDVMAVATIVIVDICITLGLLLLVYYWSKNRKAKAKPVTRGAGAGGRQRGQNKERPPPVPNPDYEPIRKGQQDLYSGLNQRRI
T5 chain 6: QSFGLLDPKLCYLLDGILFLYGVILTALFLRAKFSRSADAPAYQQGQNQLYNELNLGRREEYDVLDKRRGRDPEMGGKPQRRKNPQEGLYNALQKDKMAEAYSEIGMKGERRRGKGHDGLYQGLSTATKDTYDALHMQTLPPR

[12] = biological target: T6, cynomolgus CD123 on cells (cynomolgus monkey); assay: flow cytometry on transfected cells, cynomolgus CD123 against human CD123
T6 construct: whole, on cells; also called HEK293 cyno CD123; cynomolgus CD123 transfected cell lines

cynomolgus CD33 on cells = biological target: T7, cynomolgus CD33 on cells (cynomolgus monkey); assay: flow cytometry on transfected cells, cynomolgus CD33 against human CD33
T7 construct: whole, on cells; also called CHO cy CD33; CHO Flp-In cynoCD33

B1: T0170056G05 (VHH, not shown: small tags and cut ends)
VHH: EVQLVESGGGLVQPGGSLRLSCVASGDVHKINFLGWYRQAPGKEREKVAHISIGDQTDYADSAKGRFTISRDESKNMVYLQMNSLKPEDTAVYFCRAFSRIYPYDYWGQGTLVTVSS
notes: also called T01700056G05; parental anti-TCR ISVD
EC50 [1]: 140 nM
Kd [2]: 170 nM
EC50 [3]: 83 nM

B2: T0170056G05 (VHH, not shown: small tags and cut ends)
VHH: B1 VHH
notes: as for B1
difference in human-cynomolgus cross-reactivity based on KD [4]: 4.5 fold

B3: T017000624 (VHH, not shown: small tags and cut ends)
VHH: B1 VHH with L11V, D27Y, L34Y, M77T, K86R, V92L, F94Y, F98L, Y102W
difference in human-cynomolgus cross-reactivity based on KD [5]: 2.6 fold

B4: T017000680 (VHH)
VHH: B1 VHH with E1D, L11V, D27Y, L34Y, M77T, K86R, V92A, F94Y, F98L, Y102W
Kd [6]: 4.9 nM
IC50 [7]: 100 nM
IC50 [8]: 730 nM

B5: T017000680 (VHH)
VHH: B1 VHH with E1D, L11V, D27Y, L34Y, M77T, K86R, V92A, F94Y, F98L, Y102W
delta for human-cynomolgus cross-reactivity based on KD [9]: 1.8 fold

B6: cAbLys3 (VHH, not shown: small tags and cut ends)
VHH: DVQLQASGGGSVQAGGSLRLSCAASGYTIGPYCMGWFRQAPGKEREGVAAINMGGGITYYADSVKGRFTISQDNAKNTVYLLMNSLEPEDTAIYYCAADSTIYASYYECGHGLSTGGYGYDSWGQGTQVTVSS
notes: also called irrelevant anti-egg lysozyme ISVD
binding result [10]: no binding (tested: 3e-6 M)
binding result [11]: no binding (tested: 3e-6 M)

B7: monovalent CD123 building block (VHH)
VHH: EVQLVESGGGVVQPGGSLRLSCAASGVIFSGNVMGWYRRQAPGKEREWVAAIAEGGSILYRDSVKGRFTISRDNAKNTVYLQMNSLRPEDTALYYCNSHPPVLPYWGQGTLVTVSS
difference in EC50 between human and cynomolgus monkey [12]: 3 fold

B8: monovalent CD33 building block (VHH)
VHH: EVQLVESGGGVVQPGGSLRLSCAASGGVFRLNSMGWFRQAPGKQRELVAIITSDGDTNYADSVKGRFTISRDQAKNTVYLQMNSLRPEDTALYYCQITYSTSSYSFPINTWGQGTLVTVSS
difference in EC50 between human and cynomolgus monkey (cynomolgus CD33 on cells): < 2 fold
